Columns and labels:
[1] = target: T1, CD34 (human orbital fibroblasts) (Homo sapiens) (UniProt P28906); experiment: flow cytometry; conditions: whole-cell binding to human orbital fibroblasts, 4 C, 1 h, SELEX binding buffer: DPBS, 4.5 mg/mL D-glucose, 5 mM MgCl2, 1 mg/mL BSA, 1 mg/mL yeast tRNA, flow cytometry at 4 C, pull-down lysis buffer 5 mM …
T1 sequence: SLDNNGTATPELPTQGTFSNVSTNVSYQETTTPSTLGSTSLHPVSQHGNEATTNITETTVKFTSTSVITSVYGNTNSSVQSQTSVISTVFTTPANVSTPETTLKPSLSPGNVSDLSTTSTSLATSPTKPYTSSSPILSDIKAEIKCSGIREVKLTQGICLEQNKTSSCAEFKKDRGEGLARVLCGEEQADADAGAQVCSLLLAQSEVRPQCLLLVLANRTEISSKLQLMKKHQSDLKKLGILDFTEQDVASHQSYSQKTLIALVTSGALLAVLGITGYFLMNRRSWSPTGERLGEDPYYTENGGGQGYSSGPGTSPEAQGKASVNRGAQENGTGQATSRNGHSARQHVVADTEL

[2] = target: T2, CD34 (mouse orbital fibroblasts) (Mus musculus) (UniProt Q64314); experiment: flow cytometry; conditions: whole-cell binding to mouse orbital fibroblasts, 4 C, 1 h, SELEX binding buffer: DPBS, 4.5 mg/mL D-glucose, 5 mM MgCl2, 1 mg/mL BSA, 1 mg/mL yeast tRNA, flow cytometry at 4 C, pull-down lysis buffer 5 mM …
T2 sequence: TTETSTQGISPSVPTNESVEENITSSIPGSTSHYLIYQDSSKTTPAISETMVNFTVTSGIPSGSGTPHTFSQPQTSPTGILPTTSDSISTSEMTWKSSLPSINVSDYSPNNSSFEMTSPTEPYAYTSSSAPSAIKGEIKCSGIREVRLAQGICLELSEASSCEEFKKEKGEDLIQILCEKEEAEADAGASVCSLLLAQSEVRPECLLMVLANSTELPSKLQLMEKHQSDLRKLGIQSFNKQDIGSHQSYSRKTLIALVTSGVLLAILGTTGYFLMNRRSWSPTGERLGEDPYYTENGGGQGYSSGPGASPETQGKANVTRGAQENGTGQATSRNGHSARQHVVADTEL

CAGCACCGTCAACTGAATCTCATTGCGGCGTCCGGCTGGACGTTATTGTTGGAACCGTGATGCGATGGAGATGT [CD34 Apt (FAM)]
Kd [1]: 0.0191 µM
Kd [2]: 0.0903 µM

— PMC12380113
